Bridge positions count the residues as written; N and C are the ends. Ends that are not written are not given here. PLA = phenyl lactic acid
B1: [E9, E16K20(lactam), D28]G(4~29) (peptide)
peptide: GTFTSEYSKYLDERRAKDFVQWLMDT-NH2
modifications: lactam 13-17; N-terminus assumed
SMILES: CSCC[C@H](NC(=O)[C@H](CC(C)C)NC(=O)[C@H](Cc1c[nH]c2ccccc12)NC(=O)[C@H](CCC(N)=O)NC(=O)[C@@H](NC(=O)[C@H](Cc1ccccc1)NC(=O)[C@H](CC(=O)O)NC(=O)[C@@H]1CCCCNC(=O)CC[C@H](NC(=O)[C@H](CC(=O)O)NC(=O)[C@H](CC(C)C)NC(=O)[C@H](Cc2ccc(O)cc2)NC(=O)[C@H](CCCCN)NC(=O)[C@H](CO)NC(=O)[C@H](Cc2ccc(O)cc2)NC(=O)[C@H](CCC(=O)O)NC(=O)[C@H](CO)NC(=O)[C@@H](NC(=O)[C@H](Cc2ccccc2)NC(=O)[C@@H](NC(=O)CN)[C@@H](C)O)[C@@H](C)O)C(=O)N[C@@H](CCCNC(=N)N)C(=O)N[C@@H](CCCNC(=N)N)C(=O)N[C@@H](C)C(=O)N1)C(C)C)C(=O)N[C@@H](CC(=O)O)C(=O)N[C@H](C(N)=O)[C@@H](C)O
B2: [A2E3, E16K20(Lactam), D28]G(1~29) (peptide)
peptide: HAEGTFTSEYSKYLDERRAKDFVQWLMDT-NH2
modifications: lactam 16-20; N-terminus assumed
SMILES: CSCC[C@H](NC(=O)[C@H](CC(C)C)NC(=O)[C@H](Cc1c[nH]c2ccccc12)NC(=O)[C@H](CCC(N)=O)NC(=O)[C@@H](NC(=O)[C@H](Cc1ccccc1)NC(=O)[C@H](CC(=O)O)NC(=O)[C@@H]1CCCCNC(=O)CC[C@H](NC(=O)[C@H](CC(=O)O)NC(=O)[C@H](CC(C)C)NC(=O)[C@H](Cc2ccc(O)cc2)NC(=O)[C@H](CCCCN)NC(=O)[C@H](CO)NC(=O)[C@H](Cc2ccc(O)cc2)NC(=O)[C@H](CCC(=O)O)NC(=O)[C@H](CO)NC(=O)[C@@H](NC(=O)[C@H](Cc2ccccc2)NC(=O)[C@@H](NC(=O)CNC(=O)[C@H](CCC(=O)O)NC(=O)[C@H](C)NC(=O)[C@@H](N)Cc2c[nH]cn2)[C@@H](C)O)[C@@H](C)O)C(=O)N[C@@H](CCCNC(=N)N)C(=O)N[C@@H](CCCNC(=N)N)C(=O)N[C@@H](C)C(=O)N1)C(C)C)C(=O)N[C@@H](CC(=O)O)C(=O)N[C@H](C(N)=O)[C@@H](C)O
B3: [PLA6, E9, E16K20(Lactam)] glucagon(6-39) (Table 13, peptide 6) (peptide)
peptide: TSEYSKYLDERRAKDFVQWLMNTGPSSGAPPPS
modifications: PLA (phenyl lactic acid, in place of Phe6 of glucagon) at the N-terminus before the printed letters; lactam between E16 and K20 (glucagon numbering)

These binders were tested against T1, GLP-1 receptor (UniProt P43220 24-463, limits assumed) (assay: cell-based or functional assay).
Target sequence in this assay (P43220 24-463 limits assumed): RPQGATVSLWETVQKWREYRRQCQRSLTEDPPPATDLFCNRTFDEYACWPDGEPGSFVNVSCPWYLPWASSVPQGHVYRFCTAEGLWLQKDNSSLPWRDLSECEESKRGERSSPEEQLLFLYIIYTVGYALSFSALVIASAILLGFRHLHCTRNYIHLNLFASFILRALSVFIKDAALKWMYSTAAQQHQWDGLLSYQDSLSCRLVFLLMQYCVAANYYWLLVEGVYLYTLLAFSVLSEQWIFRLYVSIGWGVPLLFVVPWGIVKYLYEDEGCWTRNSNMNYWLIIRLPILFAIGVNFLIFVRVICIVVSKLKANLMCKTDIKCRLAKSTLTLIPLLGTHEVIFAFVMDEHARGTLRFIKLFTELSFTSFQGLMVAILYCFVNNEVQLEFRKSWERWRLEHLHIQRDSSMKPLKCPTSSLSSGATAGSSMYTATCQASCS

Row | Binder | GLP-1 EC50 [nM]
1 | FTSEYSKYLDERRAKDFVQWLMNTGPSSGAPPPS (lactam 11-15) [E9, E16K20(lactam) glucagon(6-39) (Table 13, peptide 3)] | 36
2 | FTSEYSKYLDERRAQDFVQWLMNTGPSSGAPPPS (lactam 7-11) [E9, K12E16(lactam) glucagon(6-39) (Table 13, peptide 2)] | 63
3 | FTSDYSKYLDERRAQDFVQWLMNTGPSSGAPPPS (lactam 7-11) [D9, K12E16(Lactam) glucagon(6-39) (Table 13, peptide 4)] | 119
4 | {PLA}-TSEYSKYLDERRAQDFVQWLMNTGPSSGAPPPS (lactam 6-10) [[PLA6, E9, K12E16(Lactam) glucagon(6-39) (Table 13, peptide 5)] | 6

These binders were tested against T2, glucagon receptor (UniProt P47871 26-477, limits assumed) (assay: cell-based or functional assay).
T2 sequence (P47871 26-477 limits assumed): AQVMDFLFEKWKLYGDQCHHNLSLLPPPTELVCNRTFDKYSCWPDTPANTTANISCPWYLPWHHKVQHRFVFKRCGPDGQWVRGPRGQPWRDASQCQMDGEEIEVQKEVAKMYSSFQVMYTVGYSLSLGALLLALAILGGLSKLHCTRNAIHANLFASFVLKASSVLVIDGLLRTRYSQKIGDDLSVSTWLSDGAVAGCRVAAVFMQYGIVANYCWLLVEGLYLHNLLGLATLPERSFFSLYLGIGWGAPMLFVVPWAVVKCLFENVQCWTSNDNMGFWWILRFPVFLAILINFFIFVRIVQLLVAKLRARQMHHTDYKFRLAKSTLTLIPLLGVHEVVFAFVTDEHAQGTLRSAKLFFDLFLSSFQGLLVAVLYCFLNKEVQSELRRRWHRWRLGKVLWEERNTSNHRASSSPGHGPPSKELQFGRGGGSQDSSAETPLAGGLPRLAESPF

Row | Binder | Glu IC50 [nM]
5 | FTSEYSKYLDERRAQDFVQWLMNTGPSSGAPPPS [E9, K12, E16 glucagon(6-39) (Table 13, peptide 1)] | 762
6 | FTSEYSKYLDERRAKDFVQWLMNTGPSSGAPPPS (lactam 11-15) [E9, E16K20(lactam) glucagon(6-39) (Table 13, peptide 3)] | 42
7 | FTSEYSKYLDERRAQDFVQWLMNTGPSSGAPPPS (lactam 7-11) [E9, K12E16(lactam) glucagon(6-39) (Table 13, peptide 2)] | 2010
8 | FTSDYSKYLDERRAQDFVQWLMNTGPSSGAPPPS (lactam 7-11) [D9, K12E16(Lactam) glucagon(6-39) (Table 13, peptide 4)] | 828
9 | {PLA}-TSEYSKYLDERRAQDFVQWLMNTGPSSGAPPPS (lactam 6-10) [[PLA6, E9, K12E16(Lactam) glucagon(6-39) (Table 13, peptide 5)] | 72

Biological target: T1, GLP-1 receptor
Experiment: cell-based or functional assay
Remark: another data set of the same source

Row | Binder | GLP-1 EC50 [nM]
10 | B1 | 151
11 | B2 | 0.2
12 | {PLA}-TSDYSKYLDERRAQDFVEWLMKT (lactam 18-22) [[PLA6, D9, E16, E24K28(lactam)]G(6~29)] | 289
13 | {PLA}-TSDYSKYLDERRAKDFVEWLMDT (lactam 14-18) [[PLA6, D9, E16, K20E24(Lactam), D28]G(6-29)] | 239
14 | HSQGTFTSDYARYLDARRAREFIKWLVRGRG [ANK2 (Bayer peptide)] | 0.28
15 | {PLA}-TSDYSKYLDERRAQDFVQWLMDT (lactam 6-10) [[PLA6, D9, K12E16(Lactam), D28]G(6-29)] | 177

Biological target: T2, glucagon receptor
Experiment: cell-based or functional assay
Remark: another data set of the same source

Row | Binder | Glucagon IC50 [nM] | Glucagon IC50 (nM); PA = partial antagonist [nM]
16 | B1 | 10 to 30 | –
17 | B2 | – | 130
18 | AEGTFTSEYSKYLDERRAKDFVQWLMDT (lactam 15-19) [[A2E3, E16K20(Lactam), D28]G(2~29)] | 63 | –
19 | {PLA}-TSDYSKYLDERRAQDFVEWLMKT (lactam 18-22) [[PLA6, D9, E16, E24K28(lactam)]G(6~29)] | 22 | –
20 | {PLA}-TSDYSKYLDERRAKDFVEWLMDT (lactam 14-18) [[PLA6, D9, E16, K20E24(Lactam), D28]G(6-29)] | 74 | –
21 | {PLA}-TSDYSKYLDERRAQDFVQWLMDT (lactam 6-10) [[PLA6, D9, K12E16(Lactam), D28]G(6-29)] | 63 | –
22 | {PLA}-TSDYSKYLDERRAKDFVQWLMDT (lactam 10-14) [[PLA6, D9, E16K20(lactam), D28]G(6-29)] | 10 to 30 | –

Biological target: T1, GLP-1 receptor
Experiment: cell-based or functional assay
Remark: another data set of the same source

Row | Binder | GLP-1 EC50 [nM]
23 | FTSEYSKYLDERRAKDFVQWLMNTGPSSGAPPPS (lactam 11-15) [E9, E16K20(lactam) glucagon(6-39) (Table 13, peptide 3)] | 36
24 | FTSEYSKYLDERRAQDFVQWLMNTGPSSGAPPPS (lactam 7-11) [E9, K12E16(lactam) glucagon(6-39) (Table 13, peptide 2)] | 63
25 | B3 | 20
26 | {PLA}-TSDYSKYLDERRAKDFVQWLMDT (lactam 10-14) [[PLA6, D9, E16K20(lactam), D28]G(6-29)] | 4

Biological target: T2, glucagon receptor
Experiment: cell-based or functional assay
Remark: another data set of the same source

Row | Binder | Glucagon IC50 [nM]
27 | FTSEYSKYLDERRAQDFVQWLMNTGPSSGAPPPS [E9, K12, E16 glucagon(6-39) (Table 13, peptide 1)] | 762
28 | FTSEYSKYLDERRAKDFVQWLMNTGPSSGAPPPS (lactam 11-15) [E9, E16K20(lactam) glucagon(6-39) (Table 13, peptide 3)] | 42
29 | FTSEYSKYLDERRAQDFVQWLMNTGPSSGAPPPS (lactam 7-11) [E9, K12E16(lactam) glucagon(6-39) (Table 13, peptide 2)] | 2010
30 | {PLA}-TSDYSKYLDERRAKDFVQWLMDT (lactam 10-14) [[PLA6, D9, E16K20(lactam), D28]G(6-29)] | 6
